This is an account of results in US8394771.

For this experiment, the target named is ICAM-1 on HeLa cells (human) (UniProt P05362). Nature of the experiment: cell-based or functional assay.

Some results are limits rather than exact numbers.

The substance “bivalent anti-ICAM-1 monoclonal antibody RR/1 (Chemicon)” displayed an EC50, protection of HeLa cells from HRV15 infection above 10 nM.
